Molecular target: SHP-1 (UniProt P29351)
Test: anti-FLAG IP, anti-SHP-1 Western blot
Details: reference: wild-type CD72fl, NP-BSA stimulated; sites Y7

binding against the reference: lost
Substance: human CD72fl (FLAG-tagged) (from UniProt P21854) CD72flYF (Y7F), NP-BSA stimulated
